According to IntAct's records for PubMed 23001144:

B1: Translocated intimin receptor Tir (Escherichia coli O127:H6 (strain E2348/69 / EPEC)), B7UM99 (parent)
chain: MPIGNLGNNVNGNHLIPPAPPLPSQTDGAARGGTGHLISSTGALGSRSLFSPLRNSMADSVDSRDIPGLPTNPSRLAAATSETCLLGGFEVLHDKGPLDILNTQIGPSAFRVEVQADGTHAAIGEKNGLEVSVTLSPQEWSSLQSIDTEGKNRFVFTGGRGGSGHPMVTVASDIAEARTKILAKLDPDNHGGRQPKDVDTRSVGVGSASGIDDGVVSETHTSTTNSSVRSDPKFWVSVGAIAAGLAGLAATGIAQALALTPEPDDPTTTDPDQAANAAESATKDQLTQEAFKNPENQKVNIDANGNAIPSGELKDDIVEQIAQQAKEAGEVARQQAVESNAQAQQRYEDQHARRQEELQLSSGIGYGLSSALIVAGGIGAGVTTALHRRNQPAEQTTTTTTHTVVQQQTGGNTPAQGGTDATRAEDASLNRRDSQGSVASTHWSDSSSEVVNPYAEVGGARNSLSAHQPEEHIYDEVAADPGYSVIQNFSGSGPVTGRLIGTPGQGIQSTYALLANSGGLRLGMGGLTSGGESAVSSVNAAPTPGPVRFV
B2: Translocated intimin receptor Tir (Escherichia coli O157:H7), Q7DB77 (parent)
chain: MPIGNLGHNPNVNNSIPPAPPLPSQTDGAGGRGQLINSTGPLGSRALFTPVRNSMADSGDNRASDVPGLPVNPMRLAASEITLNDGFEVLHDHGPLDTLNRQIGSSVFRVETQEDGKHIAVGQRNGVETSVVLSDQEYARLQSIDPEGKDKFVFTGGRGGAGHAMVTVASDITEARQRILELLEPKGTGESKGAGESKGVGELRESNSGAENTTETQTSTSTSSLRSDPKLWLALGTVATGLIGLAATGIVQALALTPEPDSPTTTDPDAAASATETATRDQLTKEAFQNPDNQKVNIDELGNAIPSGVLKDDVVANIEEQAKAAGEEAKQQAIENNAQAQKKYDEQQAKRQEELKVSSGAGYGLSGALILGGGIGVAVTAALHRKNQPVEQTTTTTTTTTTTSARTVENKPANNTPAQGNVDTPGSEDTMESRRSSMASTSSTFFDTSSIGTVQNPYADVKTSLHDSQVPTSNSNTSVQNMGNTDSVVYSTIQHPPRDTTDNGARLLGNPSAGIQSTYARLALSGGLRHDMGGLTGGSNSAVNTSNNPPAPGSHRFV

Variants of: B1
Conditions: with ptn6_human PTPN6, P29350
Target sequence in this assay (P29350 whole entry): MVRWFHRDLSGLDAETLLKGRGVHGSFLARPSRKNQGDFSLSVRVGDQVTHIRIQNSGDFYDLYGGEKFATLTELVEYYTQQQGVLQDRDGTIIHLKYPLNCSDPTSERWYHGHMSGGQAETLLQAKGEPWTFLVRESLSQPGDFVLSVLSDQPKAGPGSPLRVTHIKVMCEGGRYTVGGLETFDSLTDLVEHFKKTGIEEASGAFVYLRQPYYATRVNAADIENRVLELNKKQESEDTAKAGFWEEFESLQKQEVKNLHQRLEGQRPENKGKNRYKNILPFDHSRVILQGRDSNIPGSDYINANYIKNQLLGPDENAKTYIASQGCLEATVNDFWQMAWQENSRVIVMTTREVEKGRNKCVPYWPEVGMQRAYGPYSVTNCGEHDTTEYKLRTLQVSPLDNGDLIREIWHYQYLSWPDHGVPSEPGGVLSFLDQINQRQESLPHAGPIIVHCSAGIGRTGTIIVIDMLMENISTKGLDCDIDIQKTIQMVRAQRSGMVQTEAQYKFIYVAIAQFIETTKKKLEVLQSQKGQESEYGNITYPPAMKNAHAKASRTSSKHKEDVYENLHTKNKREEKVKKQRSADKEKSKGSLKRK

Variant	effect of a mutation on the interaction
Y483F;Y511F	decreasing interaction
Y483F	decreasing interaction
Y511F	decreasing interaction

Variants of: B1
Conditions: with ptn6_mouse Ptpn6, P29351
Sequence of ptn6_mouse Ptpn6, P29351 (P29351 whole entry): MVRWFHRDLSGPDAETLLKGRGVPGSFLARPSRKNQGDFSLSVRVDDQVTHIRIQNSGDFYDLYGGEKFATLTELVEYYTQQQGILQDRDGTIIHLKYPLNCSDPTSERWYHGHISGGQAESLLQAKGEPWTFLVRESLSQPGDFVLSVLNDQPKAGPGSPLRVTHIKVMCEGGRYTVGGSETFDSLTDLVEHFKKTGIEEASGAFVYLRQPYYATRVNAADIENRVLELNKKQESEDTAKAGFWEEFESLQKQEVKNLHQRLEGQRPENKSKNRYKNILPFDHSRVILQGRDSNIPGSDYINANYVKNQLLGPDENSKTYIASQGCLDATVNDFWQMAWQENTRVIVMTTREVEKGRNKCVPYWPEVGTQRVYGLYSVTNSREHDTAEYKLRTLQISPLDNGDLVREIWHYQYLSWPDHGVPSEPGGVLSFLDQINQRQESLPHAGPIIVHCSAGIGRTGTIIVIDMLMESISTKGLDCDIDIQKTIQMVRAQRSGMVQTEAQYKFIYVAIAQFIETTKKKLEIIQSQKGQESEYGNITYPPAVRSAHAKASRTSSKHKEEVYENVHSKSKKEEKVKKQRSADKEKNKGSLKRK

Variant	effect of a mutation on the interaction
Y483F;Y511F	decreasing interaction

Variants of: B2
Conditions: with ptn6_human PTPN6, P29350
Target sequence in this assay (P29350 whole entry): as the sequence (P29350 whole entry) above

Variant	effect of a mutation on the interaction
Y490F;Y519F	decreasing interaction
